Results on 94 variants are retold here after the supplement of paper PMC10567573.

Sequences and labels used below:
B1: CLCN6 (parent)
chain: FQSISLRKIQFNFPYFRSDRDKRD
B2: VTI1B (parent)
chain: ANETLAEMEEELRYAPLSFRNPMM
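Also: lentivirally expressed fusions sorted by FACS into six bins by GFP to DsRed ratio, PSI derived from sequencing read proportions per bin multiplied by bin number.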

The variants in one data set derive from B1. The data set is described as follows: protein stability index of a GFP-peptide fusion (GPS, HEK-293T) (PSI 1-6); higher = more stable. The following applies: c terminus: a fixed tail appended.
As for FQSISLRKIQFNFPYFSSDRDKRD [R17S], the protein stability index turned out to be 1.5.
On the same count and under the same terms, next, FQSISLRKIQFNFPYFESDRDKRD [R17E]: 2.26; FQSISLRKIQFNFPYFPSDRDKRD [R17P]: 2.28; FQSISLRKIQFNFPYFKSDRDKRD [R17K]: 1.76.
On the same count and under the same terms, next, FQSISLRKIQFNFPYFMSDRDKRD [R17M]: 1.93; FQSISLRKIQFNFPYFTSDRDKRD [R17T]: 1.71.
Still for that read-out and setting: in the case of FQSISLRKLQFNFPYFRSDRDKRD [I9L] it was 1.62; in that of FQSISLRKTQFNFPYFRSDRDKRD [I9T], 2.78.
For the variant FQSISLRKPQFNFPYFRSDRDKRD [I9P], the protein stability index is 1.65.
The same measure, in the same setting: next, FQSISLRKQQFNFPYFRSDRDKRD [I9Q]: 2.81.
The same measure, in the same setting: next, FQSISLRKEQFNFPYFRSDRDKRD [I9E]: 1.98; FQSISLRKIQKNFPYFRSDRDKRD [F11K]: 2.79; FQSISLRKIQENFPYFRSDRDKRD [F11E]: 2.02.
Same read-out and setting: next, FQSISLRKIQMNFPYFRSDRDKRD [F11M]: 1.65; FQSISLRKIQYNFPYFRSDRDKRD [F11Y]: 1.61; FQSISLRKIQRNFPYFRSDRDKRD [F11R]: 1.51.
For the variant FQSIQLRKIQFNFPYFRSDRDKRD [S5Q], the protein stability index was 1.66.
Regarding FQSIGLRKIQFNFPYFRSDRDKRD [S5G], the protein stability index amounted to 1.02.
On the same count and under the same terms, next, FQSITLRKIQFNFPYFRSDRDKRD [S5T]: 1.42; FQSIYLRKIQFNFPYFRSDRDKRD [S5Y]: 1.98.
Same read-out and setting: in the case of FQSISLRKIQFNFPYFRSDRDKHD [R23H] it was 1.99; in that of FQSISLRKIQFNFPYFRSDRDKVD [R23V], 1.88.
The same measure, in the same setting: next, FQSISLRKIQFNFPYFRSDRDKTD [R23T]: 2.25; FQSISLRKIQFNFPYFRSDRDKKD [R23K]: 1.91.
On to FQSISLRNIQFNFPYFRSDRDKRD [K8N], for which the protein stability index stood at 2.18.
On the same count and under the same terms, next, FQSISLRCIQFNFPYFRSDRDKRD [K8C]: 1.75; FQSISLRLIQFNFPYFRSDRDKRD [K8L]: 2.64.
On the same count and under the same terms, next, FQSISLRTIQFNFPYFRSDRDKRD [K8T]: 1.44.
The same measure, in the same setting: next, FQSISLRWIQFNFPYFRSDRDKRD [K8W]: 2.43.
For the variant FQSISLRKIQFNFPVFRSDRDKRD [Y15V], the protein stability index is 2.22.
Same read-out and setting: in the case of FQSISLRKIQFNFPIFRSDRDKRD [Y15I] it was 2.15.
On the same count and under the same terms, in the case of FQSISLRKIQFNFPDFRSDRDKRD [Y15D] it was 2.31.
The same measure, in the same setting: in the case of FQSISLRKIQFNFPEFRSDRDKRD [Y15E] it was 2.7.
In the case of FQSISLRKIQFNFPQFRSDRDKRD [Y15Q], the protein stability index was found to be 2.56.
As to FQSISLRKIQFNFPFFRSDRDKRD [Y15F], the protein stability index was 1.48.
Same read-out and setting: in the case of FQSISLRKIQFNFPMFRSDRDKRD [Y15M] it was 1.53; in that of FQSISLRKIQFNFPAFRSDRDKRD [Y15A], 3.09.
Still for that read-out and setting: next, FQSISLRKIQFNFPWFRSDRDKRD [Y15W]: 1.44; FQSISLRKIQFNFPYFRSDRDWRD [K22W]: 2.09.
In the case of FQSISLRKIQFNFPYFRSDRDARD [K22A], the protein stability index worked out at 1.29.
On the same count and under the same terms, next, FQSISLRKIQFNFPYFRSDRDLRD [K22L]: 1.71; FQSISLRKIQFNFPYFRSDRDIRD [K22I]: 1.81; FQSISLRKIQFNFPYFRSDRDQRD [K22Q]: 1.68.
Turning to FQSISLRKIQFNFPYFRSDRDRRD [K22R], the protein stability index turned out to be 1.35.
Regarding FQSISLRKIQFNFPYFRSDRDMRD [K22M], the protein stability index worked out at 1.82.

In another data set the parent is B2. The description is as above. The following applies: c terminus: a fixed tail appended.
For the variant ANETLAEMEEELRYAPLSFRNPMV [M24V], the protein stability index is 3.04.
Still for that read-out and setting: next, ANETLAEMEEELRYAPLSFRNPMK [M24K]: 3.91; ANETLAEMEEELRYAPLSFRNPMG [M24G]: 3.72; ANETLAEMEEELRYAPLSFRNPMT [M24T]: 3.97.
Take ANETLAEMEEELRYAPLSFRNPMN [M24N]: the protein stability index came out at 3.2.
The same measure, in the same setting: next, ANETLAEMEEELRYAPLSFRNPMD [M24D]: 3.92; ANETLAEMEEELRYAPLSFRNPMA [M24A]: 3.78.
Regarding ANETLAEMEEELRYAPLSFRNPMQ [M24Q], the protein stability index was found to be 2.46.
Still for that read-out and setting: in the case of ANETLAEMEEELRYAPLSFRNPMY [M24Y] it was 3.46; in that of ANETLAEMEEELRYAPLSFRNPME [M24E], 4.67.
In the case of ANETLAEMEEELRYAPLSFRNPMR [M24R], the protein stability index turned out to be 3.21.
The same measure, in the same setting: next, ANETLAEMEEELRYAPLSFRNPML [M24L]: 2.26.
On the same count and under the same terms, next, ANETLAEMEEELRYAPLSFRNPMF [M24F]: 2.83; ANETLAEMEEELRYAPLSFRNPMH [M24H]: 3.26; ANETLAEMEEELRYAPLSFRNPMS [M24S]: 4.41.
Same read-out and setting: in the case of ANETLAEMEEELRYAPLSFRNPMP [M24P] it was 4.98; in that of ANETLAEMEEELRYAPLSFRNPMC [M24C], 2.37; in that of ANETLAEMEEELRYAPLSFRNPMW [M24W], 3.97.
For the variant ANETLAEMEEELRYAPLSFRNKMM [P22K], the protein stability index was determined as 3.43.
On the same count and under the same terms, in the case of ANETLAEMEEELRYAPLSFRNMMM [P22M] it was 3.63; in that of ANETLAEMEEELRYAPLSFRNNMM [P22N], 3.58.
Still for that read-out and setting: in the case of ANETLAEMEEELRYAPLSFRNTMM [P22T] it was 3.22; in that of ANETLAEMEEELRYAPLSFRNLMM [P22L], 3.34; in that of ANETLAEMEEELRYAPLSFRNSMM [P22S], 3.48.
As to ANETLAEMEEELRYAPLSFRNVMM [P22V], the protein stability index was 2.81.
Still for that read-out and setting: next, ANETLAEMEEELRYAPLSFRNQMM [P22Q]: 4.11.
Same read-out and setting: next, ANETLAEMEEELRYAPLSFRNHMM [P22H]: 4.1.
On the same count and under the same terms, in the case of ANETLAEMEEELRYAPLSFRNYMM [P22Y] it was 3.38; in that of ANETLAEMEEELRYAPLSFRNIMM [P22I], 3.03.
With ANETLAEMEEELRYAPLSFRNWMM [P22W], the protein stability index turned out to be 3.03.
Same read-out and setting: in the case of ANETLAEMEEELRYAPLSFRNRMM [P22R] it was 3.32.
Same read-out and setting: in the case of ANETLAEMEEELRYAPLSFRNPDM [M23D] it was 4.13; in that of ANETLAEMEEELRYAPLSFRNPIM [M23I], 2.04; in that of ANETLAEMEEELRYAPLSFRNPLM [M23L], 3.56.
On the same count and under the same terms, next, ANETLAEMEEELRYAPLSFRNPNM [M23N]: 3.67.
ANETLAEMEEELRYAPLSFRNPGM [M23G]: the protein stability index was determined as 3.46.
Still for that read-out and setting: in the case of ANETLAEMEEELRYAPLSFRNPRM [M23R] it was 2.19; in that of ANETLAEMEEELRYAPLSFRNPFM [M23F], 2.62.
On the same count and under the same terms, next, ANETLAEMEEELRYAPLSFRNPHM [M23H]: 3.24; ANETLAEMEEELRYAPLSFRNPKM [M23K]: 3.07.
Still for that read-out and setting: next, ANETLAEMEEELRYAPLSFRNPEM [M23E]: 2.79; ANETLAEMEEELRYAPLSFRNPWM [M23W]: 2.13.
As to ANETLAEMEEELRYAPLSFRNPTM [M23T], the protein stability index came out at 3.35.
The same measure, in the same setting: next, ANETLAEMEEELRYAPLSFRNPVM [M23V]: 1.83; ANETLAEMEEELRYAPLSFRNPCM [M23C]: 3.62.
On the same count and under the same terms, in the case of ANETLAEMEEELRYAPLSFRNPQM [M23Q] it was 2.89.
The same measure, in the same setting: next, ANETLAEMEEELRYAPLSFRNPYM [M23Y]: 2.79; ANETLAEMEEELRYAPLSFRNPSM [M23S]: 3.62; ANETLAEMEEELRYAPLSFRNPAM [M23A]: 2.71.
